Molecular target: T1, murine fibroblast activation protein (FAP) (murine, UniProt P97321 1-761)
T1 construct: whole, on cells; also called mFAP; murine FAP
T1 sequence: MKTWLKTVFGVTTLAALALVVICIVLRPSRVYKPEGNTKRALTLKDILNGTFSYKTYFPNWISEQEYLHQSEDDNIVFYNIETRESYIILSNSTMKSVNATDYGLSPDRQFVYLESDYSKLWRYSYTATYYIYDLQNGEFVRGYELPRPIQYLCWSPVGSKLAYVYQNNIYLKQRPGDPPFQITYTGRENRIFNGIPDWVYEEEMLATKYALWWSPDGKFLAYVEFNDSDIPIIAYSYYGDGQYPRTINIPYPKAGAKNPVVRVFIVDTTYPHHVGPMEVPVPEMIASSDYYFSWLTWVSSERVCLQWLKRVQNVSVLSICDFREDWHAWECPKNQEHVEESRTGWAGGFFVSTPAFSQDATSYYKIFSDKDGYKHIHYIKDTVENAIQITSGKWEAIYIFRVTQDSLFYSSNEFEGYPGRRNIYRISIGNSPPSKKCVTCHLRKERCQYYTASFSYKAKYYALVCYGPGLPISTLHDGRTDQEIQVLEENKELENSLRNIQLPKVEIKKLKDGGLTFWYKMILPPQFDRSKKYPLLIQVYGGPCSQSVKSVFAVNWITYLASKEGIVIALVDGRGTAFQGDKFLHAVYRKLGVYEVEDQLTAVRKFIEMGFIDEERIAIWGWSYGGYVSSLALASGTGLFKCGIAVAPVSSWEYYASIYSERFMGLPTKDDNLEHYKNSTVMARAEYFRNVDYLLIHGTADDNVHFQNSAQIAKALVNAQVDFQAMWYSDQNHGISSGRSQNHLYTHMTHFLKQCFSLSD
Assay: flow cytometry on target cells (data not shown)

B1: m38-pMHC-I-anti-FAP-IgG (other)
heavy 1: SSPPMFRVGCGGSGGGGSGGGGSIQKTPQIQVYSRHPPENGKPNILNCYVTQFHPPHIEIQMLKNGKKIPKVEMSDMSFSKDWSFYILAHTEFTPTETDTYACRVKHASMAEPKTVYWDRDMGGGGSGGGGSGGGGSGGGGSGPHSLRYFVTAVSRPGLGEPRYMEVGYVDDTEFVRFDSDAENPRYEPRARWMEQEGPEYWERETQKAKGNEQSFRVDLRTLLGCYNQSKGGSHTIQVISGCEVGSDGRLLRGYQQYAYDGCDYIALNEDLKTWTAADMAALITKHKWEQAGEAERLRAYLEGTCVEWLRRYLKNGNATLLRTDSPKAHVTHHSRPEDKVTLRCWALGFYPADITLTWQLNGEELIQDMELVETRPAGDGTFQKWASVVVPLGKEQYYTCHVYHQGLPEPLTLRWGSEVQLLESGGGLVQPGGSLRLSCAASGFTFSSHAMSWVRQAPGKGLEWVSAIWASGEQYYADSVKGRFTISRDNSKNTLYLQMNSLRAEDTAVYYCAKGWLGNFDYWGQGTLVTVSSAKTTAPSVYPLAPVCGGTTGSSVTLGCLVKGYFPEPVTLTWNSGSLSSGVHTFPALLQSGLYTLSSSVTVTSNTWPSQTITCNVAHPASSTKVDKKIEPRVPITQNPCPPLKECPPCAAPDAAGGPSVFIFPPKIKDVLMISLSPMVTCVVVDVSEDAPDVQISWFVNNVEVHTAQTQTHREDYNSTLRVVSALPIQHQDWMSGKEFKCKVNNRALGSPIEKTISKPRGPVRAPQVCVLPPPAEEMTKKEFSLSCAITGFLPAEIAVDWTSNGRTEQNYKNTATVLDSDGSYFMVSKLRVQKSTWERGSLFACSVVHEGLHNHLTTKTISRSLGK
heavy 2: EVQLLESGGGLVQPGGSLRLSCAASGFTFSSHAMSWVRQAPGKGLEWVSAIWASGEQYYADSVKGRFTISRDNSKNTLYLQMNSLRAEDTAVYYCAKGWLGNFDYWGQGTLVTVSSAKTTAPSVYPLAPVCGGTTGSSVTLGCLVKGYFPEPVTLTWNSGSLSSGVHTFPALLQSGLYTLSSSVTVTSNTWPSQTITCNVAHPASSTKVDKKIEPRVPITQNPCPPLKECPPCAAPDAAGGPSVFIFPPKIKDVLMISLSPMVTCVVVDVSEDAPDVQISWFVNNVEVHTAQTQTHREDYNSTLRVVSALPIQHQDWMSGKEFKCKVNNRALGSPIEKTISKPRGPVRAPQVYVLPPCAEEMTKKEFSLWCMITGFLPAEIAVDWTSNGRTEQNYKNTATVLDSDGSYFMYSKLRVQKSTWERGSLFACSVVHEGLHNRFTTKTISRSLGK
light: EIVLTQSPGTLSLSPGERATLSCRASQSVSRSYLAWYQQKPGQAPRLLIIGASTRATGIPDRFSGSGSGTDFTLTISRLEPEDFAVYYCQQGQVIPPTFGQGTKVEIKRADAAPTVSIFPPSSEQLTSGGASVVCFLNNFYPKDINVKWKIDGSERQNGVLNSWTDQDSKDSTYSMSSTLTLTKDEYERHNSYTCEATHKTSTSPIVKSFNRNEC
notes: also called mCMV m38-pMHC-I-anti-FAP-IgG; pMHC-I-IgG
binding result: binds

B2: IE3-pMHC-I-anti-FAP-IgG (other)
heavy 1: RALEYKNLGCGGSGGGGSGGGGSIQKTPQIQVYSRHPPENGKPNILNCYVTQFHPPHIEIQMLKNGKKIPKVEMSDMSFSKDWSFYILAHTEFTPTETDTYACRVKHASMAEPKTVYWDRDMGGGGSGGGGSGGGGSGGGGSGPHSLRYFVTAVSRPGLGEPRYMEVGYVDDTEFVRFDSDAENPRYEPRARWMEQEGPEYWERETQKAKGNEQSFRVDLRTLLGCYNQSKGGSHTIQVISGCEVGSDGRLLRGYQQYAYDGCDYIALNEDLKTWTAADMAALITKHKWEQAGEAERLRAYLEGTCVEWLRRYLKNGNATLLRTDSPKAHVTHHSRPEDKVTLRCWALGFYPADITLTWQLNGEELIQDMELVETRPAGDGTFQKWASVVVPLGKEQYYTCHVYHQGLPEPLTLRWGSEVQLLESGGGLVQPGGSLRLSCAASGFTFSSHAMSWVRQAPGKGLEWVSAIWASGEQYYADSVKGRFTISRDNSKNTLYLQMNSLRAEDTAVYYCAKGWLGNFDYWGQGTLVTVSSAKTTAPSVYPLAPVCGGTTGSSVTLGCLVKGYFPEPVTLTWNSGSLSSGVHTFPALLQSGLYTLSSSVTVTSNTWPSQTITCNVAHPASSTKVDKKIEPRVPITQNPCPPLKECPPCAAPDAAGGPSVFIFPPKIKDVLMISLSPMVTCVVVDVSEDAPDVQISWFVNNVEVHTAQTQTHREDYNSTLRVVSALPIQHQDWMSGKEFKCKVNNRALGSPIEKTISKPRGPVRAPQVCVLPPPAEEMTKKEFSLSCAITGFLPAEIAVDWTSNGRTEQNYKNTATVLDSDGSYFMVSKLRVQKSTWERGSLFACSVVHEGLHNHLTTKTISRSLGK
heavy 2: EVQLLESGGGLVQPGGSLRLSCAASGFTFSSHAMSWVRQAPGKGLEWVSAIWASGEQYYADSVKGRFTISRDNSKNTLYLQMNSLRAEDTAVYYCAKGWLGNFDYWGQGTLVTVSSAKTTAPSVYPLAPVCGGTTGSSVTLGCLVKGYFPEPVTLTWNSGSLSSGVHTFPALLQSGLYTLSSSVTVTSNTWPSQTITCNVAHPASSTKVDKKIEPRVPITQNPCPPLKECPPCAAPDAAGGPSVFIFPPKIKDVLMISLSPMVTCVVVDVSEDAPDVQISWFVNNVEVHTAQTQTHREDYNSTLRVVSALPIQHQDWMSGKEFKCKVNNRALGSPIEKTISKPRGPVRAPQVYVLPPCAEEMTKKEFSLWCMITGFLPAEIAVDWTSNGRTEQNYKNTATVLDSDGSYFMYSKLRVQKSTWERGSLFACSVVHEGLHNRFTTKTISRSLGK
light: EIVLTQSPGTLSLSPGERATLSCRASQSVSRSYLAWYQQKPGQAPRLLIIGASTRATGIPDRFSGSGSGTDFTLTISRLEPEDFAVYYCQQGQVIPPTFGQGTKVEIKRADAAPTVSIFPPSSEQLTSGGASVVCFLNNFYPKDINVKWKIDGSERQNGVLNSWTDQDSKDSTYSMSSTLTLTKDEYERHNSYTCEATHKTSTSPIVKSFNRNEC
notes: Same build as m38-pMHC-I-anti-FAP-IgG, with the control peptide IE3; also called mCMV IE3-pMHC-I-anti-FAP-IgG; control fusion protein
binding result: binds
